Source: patent US20240209361A1 (Johns Hopkins, published 2024)
No end group written: not given here. (C16)2‑Glu‑C2 = not defined here

Assays:
[1] = target: T1, integrin α5β1 on patient-derived glioblastoma stem-like cells (GBM-CCC-001, GBM-CCC-002, GBM-CCC-003) (human (patient-derived cells), UniProt P08648 42-1049; P05556 21-798); experiment: flow cytometry blocking experiment on GBM-CCC-001 cells; 1 mg/mL free PR_b peptide for 1 hour, then PR_b liposomes for 1 hour at 37° C.
T1 construct: whole, on cells; Endogenous heterodimer on cells; The cells were not engineered, so other surface proteins were also present; also called α5β1 integrin; integrin α5β1 polypeptide
T1 sequence (P08648 42-1049, chain 1 of 2): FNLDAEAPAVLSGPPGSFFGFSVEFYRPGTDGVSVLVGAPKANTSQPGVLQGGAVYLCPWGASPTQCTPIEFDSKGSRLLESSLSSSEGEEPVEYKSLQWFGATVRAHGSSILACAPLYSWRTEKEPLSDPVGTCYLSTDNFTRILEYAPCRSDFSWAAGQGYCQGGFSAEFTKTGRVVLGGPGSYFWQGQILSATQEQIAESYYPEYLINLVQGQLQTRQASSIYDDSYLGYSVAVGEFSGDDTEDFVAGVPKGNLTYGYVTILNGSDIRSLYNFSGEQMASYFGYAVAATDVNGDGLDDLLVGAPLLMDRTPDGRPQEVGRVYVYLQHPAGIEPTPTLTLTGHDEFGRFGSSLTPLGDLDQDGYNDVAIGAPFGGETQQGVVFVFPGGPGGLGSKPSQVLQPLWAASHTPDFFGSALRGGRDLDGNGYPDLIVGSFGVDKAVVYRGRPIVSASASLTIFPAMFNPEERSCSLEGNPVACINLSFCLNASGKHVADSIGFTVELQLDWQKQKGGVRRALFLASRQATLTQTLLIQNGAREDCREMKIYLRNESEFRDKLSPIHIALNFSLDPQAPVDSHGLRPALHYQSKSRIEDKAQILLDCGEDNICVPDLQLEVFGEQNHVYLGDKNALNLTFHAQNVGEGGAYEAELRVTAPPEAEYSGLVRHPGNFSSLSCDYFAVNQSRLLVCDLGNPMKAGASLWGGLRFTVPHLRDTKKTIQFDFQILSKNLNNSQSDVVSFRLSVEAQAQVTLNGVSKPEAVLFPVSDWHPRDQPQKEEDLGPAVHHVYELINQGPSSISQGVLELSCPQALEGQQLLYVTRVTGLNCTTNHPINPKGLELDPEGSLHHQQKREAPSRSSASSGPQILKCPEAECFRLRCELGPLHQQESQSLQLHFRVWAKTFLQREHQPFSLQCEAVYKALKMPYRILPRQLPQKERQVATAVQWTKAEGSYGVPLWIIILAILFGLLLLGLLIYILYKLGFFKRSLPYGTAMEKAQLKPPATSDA
T1 sequence (P05556 21-798, chain 2 of 2): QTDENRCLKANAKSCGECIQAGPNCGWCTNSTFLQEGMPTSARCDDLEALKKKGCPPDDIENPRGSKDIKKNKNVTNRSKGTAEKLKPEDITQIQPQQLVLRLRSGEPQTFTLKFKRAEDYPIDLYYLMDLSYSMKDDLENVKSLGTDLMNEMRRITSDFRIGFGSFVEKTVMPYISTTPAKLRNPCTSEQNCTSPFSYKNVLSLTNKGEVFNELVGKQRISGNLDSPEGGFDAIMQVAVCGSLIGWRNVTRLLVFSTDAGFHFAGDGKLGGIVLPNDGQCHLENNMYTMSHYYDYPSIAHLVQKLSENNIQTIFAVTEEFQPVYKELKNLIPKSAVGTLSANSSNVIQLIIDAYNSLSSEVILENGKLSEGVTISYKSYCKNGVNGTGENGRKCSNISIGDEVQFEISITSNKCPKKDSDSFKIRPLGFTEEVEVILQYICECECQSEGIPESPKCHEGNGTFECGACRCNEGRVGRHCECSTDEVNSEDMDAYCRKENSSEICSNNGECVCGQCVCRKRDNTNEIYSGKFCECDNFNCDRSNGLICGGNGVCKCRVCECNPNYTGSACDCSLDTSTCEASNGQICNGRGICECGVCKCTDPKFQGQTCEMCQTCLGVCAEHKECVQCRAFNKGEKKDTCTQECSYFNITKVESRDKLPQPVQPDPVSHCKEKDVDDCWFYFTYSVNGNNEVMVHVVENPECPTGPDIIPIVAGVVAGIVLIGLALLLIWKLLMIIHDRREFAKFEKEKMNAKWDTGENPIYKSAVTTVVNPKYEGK
Protocol: (§1) GSC neurospheres (GBM-CCC-001, GBM-CCC-002 and GBM-CCC-003) were collected into 15 mL Falcon tubes, pelleted down, and dissociated into single cells. About 200,000 cells were transferred into Eppendorf tubes in neurosphere culture media and treated with 2 mM calcein loaded PR_b liposomes or non-targeted liposomes at a lipid concentration of 150 μM for 48 hours at 37° C. on a shaker. After the incubation period, cells were pelleted down and washed twice with PBS. Flow cytometric analysis was carried out immediately using BD FACSCanto. Non-treated cells that received only media served as a control. Cell autofluorescence was subtracted from all measurements. For the blocking experiment, the same procedure was followed, except cells were preincubated with 1 mg/mL free PR_b peptide in media for 1 hour at 37° C. prior to addition of the PR_b liposomes and incubation for an additional 1 hour at 37° C.

[2] = target: T1, integrin α5β1 on patient-derived …; experiment: flow cytometry of calcein-loaded liposomes (150 µM lipid) on GBM-CCC-001, GBM-CCC-002 and GBM-CCC-003 cells, 48 hours at 37° C.
Protocol: as §1

Binder: KSSPHSRNSGSGSGSGSGRGDSP [free PR_b peptide]
- binding result [1]: binds

Binder: {(C16)2‑Glu‑C2}-KSSPHSRNSGSGSGSGSGRGDSP (reading uncertain; also: printed as (C16)2-Glu-C2-KSSPHSRNSGSGSGSGSGRGDSP, Synthetic fibronectin-mimetic peptide)
- binding result [2]: binds
